Our source for the protein stability index values is the supplement of paper PMC10567573.

± gives the standard deviation.

This data set in a line: protein stability index of a GFP-peptide fusion (GPS, HEK-293T) (PSI 1-6); higher = more stable. To be noted: c terminus: a fixed tail appended.
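Also: 24-mer peptide tiles fused after GFP, lentivirally expressed, FACS-sorted into six equal bins by GFP/DsRed ratio, decoded by Illumina sequencing, PSI is the read-weighted mean bin number.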

Take SVVPEMEESGAQLLLEMLTFNPHK [CDK4]: the protein stability index runs as follows: (treatment: DMSO) 3.14 ± 0.26; (treatment: MLN4924 1 uM, 8 h) 3.15 ± 0.38.
In the same order, the values of VGRTEPELLVAHAYTRYLGDLSGG [HMOX1] are 2.68 ± 0.16 and 2.48 ± 0.08.
In the same order, the values of EALRALQEGLWLDRGTRVVFIDFS [PKD2L1] are 2.3 ± 0.72 and 2.34 ± 0.35.
In the same order, the values of SHAGKVVLRSWYEKNKHIFPASRW [FAM50A] are 2.4 ± 0.3 and 2.58 ± 0.21.
In the case of PKTPMDGADCGIQWWNAVFIMLLI [LYSMD4], the protein stability index by setting is: (treatment: DMSO) 2.5 ± 0.62; (treatment: MLN4924 1 uM, 8 h) 2.39 ± 0.41.
The like results for GGRLENQKPRGLEGGVLRGSKLEK [ZSWIM9] were, in that order, 4.91 ± 0.68 and 4.9 ± 0.65.
In the same order, the values of ENLDNDTETDSLVSAQRERPRRRD [DVL3] are 5.51 ± 0.2 and 5.41 ± 0.29.
In the same order, the values of AIIRTPPKSPATPKQLRLINQPLP [MAP2] are 3.13 ± 0.19 and 3.15 ± 0.21.
In turn, LDFCDFTAEMARVLTDSNHVPLQR [FBXO33] registered a protein stability index (treatment: DMSO) of 3.07 ± 0.46 and a protein stability index (treatment: MLN4924 1 uM, 8 h) of 3.26 ± 0.34.
The like results for TSAITASRSESPPPLSDPKQAKVV [BRD3] were, in that order, 5.24 ± 0.22 and 5.21 ± 0.077.
In the same order, the values of RMGATMAAINSIYSNTDANILFYV [GLT8D2] are 2.63 ± 0.59 and 3.14 ± 1.5.
In the same order, the values of NEDEDLGPCEGPSKEDKDLDSSEG [SPANXN3] are 5.66 ± 0.21 and 5.54 ± 0.17.
GHRYPCFFNTLHVGGTIRTCQKFL [POP5]: the protein stability index was found to be 2.23 ± 0.48 (treatment: DMSO) and 2.03 ± 0.21 (treatment: MLN4924 1 uM, 8 h).
The like results for VQRHNSFSPNSPQFNVSGPGLLEE [NECAB1] were, in that order, 4.03 ± 0.21 and 4.33 ± 0.32.
For the sequence GPGDSQGRKRRQTSMTDFYHSKRR [CDKN1A], the protein stability index was 3.62 ± 0.42 (treatment: DMSO) and 4.78 ± 0.19 (treatment: MLN4924 1 uM, 8 h).
Regarding RPRALPCQRSRYRDSLTQPDEEPM [RSPH3], the protein stability index was found to be 4.62 ± 0.36 (treatment: DMSO) and 5.01 ± 0.17 (treatment: MLN4924 1 uM, 8 h).
In the same order, the values of CGFTVAQIITSLVFHLPFYSSNQL [OR10K2] are 3.15 ± 0.51 and 2.95 ± 0.41.
The like results for MGWFNNEVGSMKIQSGAWVCYQYP [CRYBA1] were, in that order, 2.74 ± 0.73 and 2.61 ± 0.29.
As to ERLQKEEEKRRREEEERLRREEEE [ACBD3], the protein stability index (treatment: DMSO) stood at 5.67 ± 0.26 and the protein stability index (treatment: MLN4924 1 uM, 8 h) was determined as 5.59 ± 0.23.
In the same order, the values of AACLLQLDGLIQQCGETMKETVNV [GMCL1] are 3.14 ± 0.24 and 3.07 ± 0.25.
In the same order, the values of MQAQASIEGAPEVTMSSLFKHILR [SLC25A25] are 2.36 ± 0.32 and 2.14 ± 0.13.
As to PMPLAPTRSHLWEAAQVVPDGLGL [TRIB3], the protein stability index stood at 3.48 ± 0.32 (treatment: DMSO) and 3.34 ± 0.23 (treatment: MLN4924 1 uM, 8 h).
Consider SPINSPARGTPSPKRMPSGRGGRD [FSD1], for which the protein stability index worked out at 5.22 ± 0.15 (treatment: DMSO) and 5.04 ± 0.35 (treatment: MLN4924 1 uM, 8 h).
The like results for LDLFAMKPPETSVPVVTPTASTAP [SNAP91] were, in that order, 4.25 ± 0.28 and 4.48 ± 0.22.
In the same order, the values of VAGSLAGAIAQSSIYPMEVLKTRM [SLC25A25] are 2.56 ± 0.11 and 2.54 ± 0.32.
The like results for GPKESLPVIAAPSMWTRPQIKDFK [ACBD3] were, in that order, 3.8 ± 0.29 and 3.79 ± 0.16.
As to HTLNNLVEKLLREEAEGARWTSYR [TRIM35], the protein stability index stood at 2.48 ± 0.2 (treatment: DMSO) and 2.57 ± 0.19 (treatment: MLN4924 1 uM, 8 h).
Turning to PIFQDSQDTEVFSWSDNERSSSRI [FAM104B], the protein stability index runs as follows: (treatment: DMSO) 4.34 ± 0.55; (treatment: MLN4924 1 uM, 8 h) 4.41 ± 0.26.
In the same order, the values of MVRRLKMVVKTFMDMDQDSEEEKE [PDS5B] are 2.73 ± 0.38 and 3.13 ± 0.26.
In the same order, the values of KQYDQQFPDGDDEFDSPHEDIVFE [STX11] are 5.18 ± 0.14 and 5.11 ± 0.2.
The like results for IIVTIMASQSLGSPMYFFLASLSF [OR4A15] were, in that order, 3.29 ± 0.57 and 3.13 ± 0.2.
For the sequence SSSSSSQAPGQPPGNQAEHGAVTV [ZBTB22], the protein stability index was 5.12 ± 0.15 (treatment: DMSO) and 5.08 ± 0.24 (treatment: MLN4924 1 uM, 8 h).
In the same order, the values of WRLLNPGEYVVTAKAEGFTASTKN [CPXM2] are 3.09 ± 0.43 and 3.03 ± 0.29.
In the same order, the values of LASLQDGAAESPYGHPAGIDYKTT [RAB40B] are 4.4 ± 0.31 and 4.39 ± 0.15.
For the sequence FHAYYYCFITLTTIGFGDYVALQT [KCNK9], the protein stability index (treatment: DMSO) turned out to be 3.27 ± 0.29 and the protein stability index (treatment: MLN4924 1 uM, 8 h) worked out at 3.34 ± 0.36.
PGTPPSYSSRTPGTPGTPSYPRTP [MAP2]: the protein stability index (treatment: DMSO) turned out to be 4.72 ± 0.39 and the protein stability index (treatment: MLN4924 1 uM, 8 h) is 4.55 ± 0.34.
For the sequence MTTDFDLSLDNSPLLQSIHQLDFV [TRIM9], the protein stability index is, setting by setting: (treatment: DMSO) 2.7 ± 0.33; (treatment: MLN4924 1 uM, 8 h) 2.71 ± 0.24.
In the same order, the values of YIWEKSIGNLVKILHGTRGELLLD [RBBP5] are 2.65 ± 0.52 and 3.09 ± 0.29.
In the same order, the values of TAIFYTLMTCEMLNRRNGSLRIAL [EDNRA] are 2.85 ± 0.21 and 3.15 ± 0.42.
The like results for PAEQAFWCLVQICEKYLPGYYSEK [TBC1D10A] were, in that order, 3.37 ± 0.55 and 3.46 ± 0.48.
For the sequence APPSTRTSHSLPESSVPSTVGCSS [PLEKHN1], the protein stability index worked out at 4.94 ± 0.45 (treatment: DMSO) and 5.23 ± 0.18 (treatment: MLN4924 1 uM, 8 h).
The like results for YGLQGGMAFLDKRLQVKEHQHEEI [ATL3] were, in that order, 3.06 ± 0.51 and 3.39 ± 0.65.
In the same order, the values of TLCDVTLRVEQKDFPAHRIVLAAC [KLHL12] are 2.21 ± 0.52 and 1.83 ± 0.53.
The like results for ILKRRYYRQHCTLELGSYIKDLSV [CTDNEP1] were, in that order, 2.46 ± 0.56 and 2.25 ± 0.66.
For the sequence RLVRVFRIFKLSRHSKGLQILGQT [KCNA1], the protein stability index is 2.65 ± 0.57 (treatment: DMSO) and 2.29 ± 0.36 (treatment: MLN4924 1 uM, 8 h).
Take RERIQILKTSEVTQHLPRECLPEN [PTPN9]: the protein stability index was 4.46 ± 0.19 (treatment: DMSO) and 4.36 ± 0.31 (treatment: MLN4924 1 uM, 8 h).
In the same order, the values of HIFGDLDSYIPLHEDLLTRIGEAT [NET1] are 2.96 ± 0.14 and 2.93 ± 0.17.
In the same order, the values of FFTLDLEHIADALRAIDFGTDEEE [TRIM63] are 3.9 ± 0.63 and 4.27 ± 0.26.
In the same order, the values of KRKTFNKVLGHVNNILISAVLPTA [GDAP1] are 2.49 ± 0.14 and 2.42 ± 0.076.
On to AKEKLESFIKNSDSFDKFEFCEPA [PCMTD1], for which the protein stability index by setting is: (treatment: DMSO) 4.06 ± 0.27; (treatment: MLN4924 1 uM, 8 h) 3.96 ± 0.31.
In the same order, the values of VCAICQINLEGKTFYSKKDRPLCK [PDLIM7] are 2.1 ± 0.44 and 2.42 ± 0.5.
As for SYTIITPLFNPMIYSLRNKEFKSA [OR10K2], the protein stability index runs as follows: (treatment: DMSO) 2.74 ± 0.65; (treatment: MLN4924 1 uM, 8 h) 2.38 ± 0.34.
For the sequence PLAVEEDASSSTSTSSSFPSSFPS [MAGEA10], the protein stability index runs as follows: (treatment: DMSO) 5.31 ± 0.23; (treatment: MLN4924 1 uM, 8 h) 5.41 ± 0.12.
In the case of TECEGDIQKNYECANFGDQGITMG [LOXL2], the protein stability index by setting is: (treatment: DMSO) 4.94 ± 0.11; (treatment: MLN4924 1 uM, 8 h) 5.04 ± 0.19.
For the sequence PESLNSPVSGKAVFMEFGPPNQQM [DLX1], the protein stability index (treatment: DMSO) was 3.79 ± 0.33 and the protein stability index (treatment: MLN4924 1 uM, 8 h) worked out at 3.92 ± 0.26.
Take DFEHRPKAPVVECSITGDSSRVIA [WDR88]: the protein stability index (treatment: DMSO) is 4.36 ± 0.26 and the protein stability index (treatment: MLN4924 1 uM, 8 h) stood at 4.49 ± 0.17.
In the same order, the values of KQNEKLNNQEEETEFKELDGLREA [CCDC89] are 5.51 ± 0.28 and 5.54 ± 0.3.
In the same order, the values of DWYQKQTPTSPECDYSQYFKTIEE [KRT15] are 3.86 ± 0.23 and 3.97 ± 0.26.
The like results for STSFRVYIMAFDIKSEDMLKILKP [FBXO33] were, in that order, 2.14 ± 0.59 and 3.02 ± 0.51.
As to EEERPLPEKEYQRQVWLLFEYPES [KCNA1], the protein stability index (treatment: DMSO) came to 3.33 ± 0.12 and the protein stability index (treatment: MLN4924 1 uM, 8 h) was 3.63 ± 0.28.
In the same order, the values of LGSIFQQLAHMVKEQEETIQRIDE [STX5] are 4.48 ± 0.2 and 4.26 ± 0.098.
In the same order, the values of RNLEDIHMSLEKDIAAMTNSLFID [TEKT4] are 3.29 ± 0.33 and 3.33 ± 0.27.
The like results for RIFRLPNNWYYISPRLTFQCLEDL [SLA] were, in that order, 2.53 ± 0.28 and 2.38 ± 0.39.
As for HGLLGSPVRAAASSPVTTLTQTMH [CDC25B], the protein stability index stood at 3.7 ± 0.21 (treatment: DMSO) and 3.79 ± 0.17 (treatment: MLN4924 1 uM, 8 h).
In the same order, the values of VNPLHVDSTWLLLRRIRAESGTKG [SLC25A39] are 2.83 ± 0.3 and 2.74 ± 0.33.
The like results for MSVILSMDNNRNLDLDSIIDEVRT [KRT71] were, in that order, 2.61 ± 0.22 and 2.52 ± 0.59.
The like results for KQESTRPEKKSDQPMCEEHEEERI [TRIM55] were, in that order, 5.73 ± 0.12 and 5.48 ± 0.26.
As for QSGLVWTNCWLIRELNLPFGGMKS [ALDH8A1], the protein stability index is, setting by setting: (treatment: DMSO) 2.6 ± 0.48; (treatment: MLN4924 1 uM, 8 h) 2.61 ± 0.68.
With NMSKEDAMVEFVKLLNRCCHLFST [ACBD3], the protein stability index amounted to 2.24 ± 0.16 (treatment: DMSO) and 2.29 ± 0.39 (treatment: MLN4924 1 uM, 8 h).
In the same order, the values of CGGYNGEVILGDIWKLNLQTFQWV [KLHDC10] are 2.44 ± 0.85 and 2.11 ± 0.71.
For the sequence VLMKGQHLHLETFKAVLDGLDVLL [PRAME], the protein stability index runs as follows: (treatment: DMSO) 2.26 ± 0.38; (treatment: MLN4924 1 uM, 8 h) 2.17 ± 0.1.
The like results for LSLPARNQAGYFMLPTVITDIKDE [ALDH8A1] were, in that order, 3.81 ± 0.39 and 3.88 ± 0.27.
